From US6699481B2, “Peptides for inhibition of herpes simplex virus entry” (priority 1998, dated 2004)
Bridge positions count the residues as written; N and C are the ends. Ends that are not written are not given here. * marks the point of attachment. Acm = CC(=O)NC*

Legend:
[1] = target: T1, HveA (200t) (Homo sapiens, UniProt Q92956); test: competition ELISA, gD-1(306t) binding with immobilized HveA (200t); details: for inhibitory effect upon binding of gD-1 with HveA: FIG. 4C; for inhibition of binding of soluble wild type gD-1(306t) with immobilized HveA (200t): peptide at 0.5 millimolar, FIG. 4A
T1 sequence (Q92956 39-202 limits assumed): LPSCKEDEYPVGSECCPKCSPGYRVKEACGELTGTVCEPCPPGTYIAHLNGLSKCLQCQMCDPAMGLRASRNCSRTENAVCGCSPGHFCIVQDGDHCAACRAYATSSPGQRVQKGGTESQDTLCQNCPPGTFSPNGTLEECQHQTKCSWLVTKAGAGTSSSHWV
Experimental: (§1) Several ELISAs were performed to analyze interaction among HveA, the isolated phage peptides, gD, and LT-α. In these assays, microtiter wells were coated for 2 hours at 22° C. with 40 nanograms of HveA(200t), human factor H, trout complement C3, BSA, milk, or ovalbumin. Nonspecific binding in the wells was blocked using PBS containing 1% (w/v) BSA for 1 hour at 22° C. For competition assays, serial dilutions of gD-1 (306t), gD-1 (Δ290-299t), BSA, peptide BP-1, BP-2, or an unrelated cyclic peptide having the amino acid sequence ICVVQDWGHHRCT (SEQ ID NO:3) was added to each well. After 30 minutes of incubation at 22° C., recombinant protein (i.e., gD-1 (306t) at 0.4 microgram per milliliter, gD-1 (Δ290-299t) at 0.1 microgram per milliliter, or LT-α at 20 nanomolar), or phage supernatant was added to the well, and the samples were incubated for 1 hour. The wells were washed twice with PBS containing 0.05% (v/v) Tween-20 and incubated for one hour at 22° C. with at least one of the following: (i) a 1:1000 dilution of a peroxidase-labeled anti-M13 antibody, (ii) a 1:400 dilution of an anti-gD polyclonal antibody (R7), or (iii) an anti-LT-α monoclonal antibody (AG9).
(§2) Following incubation with the antibody, the wells were washed twice with PBS containing 0.05% (v/v) Tween-20 and incubated for 30 minutes at 22° C. with a 1:1000 dilution of a peroxidase-conjugated goat anti-rabbit immunoglobulin G (for polyclonal antibody detection) or with goat anti-mouse immunoglobulin G (for monoclonal antibody detection; Bio-Rad Laboratories, Richmond, Calif.). Color was developed by adding 2,2′-azino-di-(3-ethylbenzthiazolinesulfonate) (ABTS, Boehringer-Mannheim, Indianapolis, Ind.) and 0.5% (v/v) hydrogen peroxide. Absorbance was assessed at 405 nanometers. Net gD-1 or LT-α binding was calculated by subtracting the amount of secondary antibody bound with HveA from the amount of ligand bound with HveA.

[2] = target: T1, HveA (200t); test: competition ELISA, binding of phage displaying BP-1 or BP-2 with HveA
Experimental: as §1, §2
The results of these experiments are depicted in FIG. 1A.

[3] = tested on: HSV-1 entry into CHO-HveA cells; test: HSV entry assay, CHO-HveA cells (β-galactosidase reporter virus KOS-hrR3); type: cell-based; details: FIG. 7A
Experimental: (§3) CHO-HveA, CHO-HveC, and Vero cells were plated on 96-well dishes and incubated overnight. The cells were chilled at 4° C. for 10, minutes and then the medium was replaced with Ham's F-12 (CHO-HveA and CHO-HveC cells) or with Dulbecco's modified Eagle medium (DMEM) (Vero cells). These media were supplemented with 10% (v/v) bovine fetal serum and 10 millimolar HEPES, containing various concentrations of peptide, which had been previously filtered through a 0.2 micrometer pore size filter (Corning Glass Works, Corning, N.Y.). The plates were rocked at 4° C. for 90 minutes, at which time KOS-hrR3 virus (5×10^5 PFU/well) was added. The plates were rocked at 4° C. for 90 additional minutes and then incubated at 37° C. for 5 hours. Cells were lysed using 20% (v/v) Nonidet P-40 and β-galactosidase substrate (o-nitrophenyl-β-D-glucopyranoside) was added to each well. β-galactosidase activity was measured at selected time points using a Specromax 250 enzyme-linked immunosorbent assay (ELISA) reader.
Inhibition of gD-1 binding with HveA mediated by BP-2, as indicated in FIGS. 4A-4C, raised the question of whether this peptide has a blocking effect on viral entry into mammalian cells. To test this possibility, the effect of BP-2 and related peptides (i.e., BP-1, BP-2 (3, 9 Ala), scrambled BP-2, control peptide, and gD-1(Δ290-299t)) on HSV-1 entry into CHO cells expressing either HveA (CHO-HveA cells), or HveC (CHO-HveC cells), and into Vero cells was examined. Cell monolayers were incubated with increasing concentrations of peptide at 4° C. for 90 minutes. Following incubation, the cells were infected with the β-galactosidase reporter virus, KOS-hrR3. The results of these experiments are depicted in FIGS. 7A and 7B.

[4] = tested on: HSV entry into CHO-HveC cells; test: HSV entry assay, CHO-HveC cells; type: cell-based, HSV-1; details: KOS-hrR3 virus
Experimental: as §3
(§4) Inhibition of gD-1 binding with HveA mediated by BP-2, as indicated in FIGS. 4A-4C, raised the question of whether this peptide has a blocking effect on viral entry into mammalian cells. […]

[5] = tested on: HSV entry into Vero cells; test: HSV entry assay, Vero cells; type: cell-based, HSV-1; details: KOS-hrR3 virus; FIG. 7B
Experimental: as §3, §4

[6] = target: T2, HveA (200t) (Homo sapiens, UniProt Q92956); test: competition ELISA, gD-1 (Δ290-299t) binding with HveA; details: FIG. 4B
T2 sequence (Q92956 39-200): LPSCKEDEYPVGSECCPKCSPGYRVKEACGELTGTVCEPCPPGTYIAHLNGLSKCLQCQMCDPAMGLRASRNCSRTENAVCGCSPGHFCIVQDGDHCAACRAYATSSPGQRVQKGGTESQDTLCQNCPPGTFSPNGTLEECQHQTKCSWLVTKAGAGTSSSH
Experimental: Several ELISAs were performed to analyze interaction among HveA, the isolated phage peptides, gD, and LT-α. In these assays, microtiter wells were coated for 2 hours at 22° C. with 40 nanograms of HveA(200t), human factor H, trout complement C3, BSA, milk, or ovalbumin. Nonspecific binding in the wells was blocked using PBS containing 1% (w/v) BSA for 1 hour at 22° C. For competition assays, serial dilutions of gD-1 (306t), gD-1 (Δ290-299t), BSA, peptide BP-1, BP-2, or an unrelated cyclic peptide having the amino acid sequence ICVVQDWGHHRCT (SEQ ID NO:3) was added to each well. […]
Following incubation with the antibody, the wells were washed twice with PBS containing 0.05% (v/v) Tween-20 and incubated for 30 minutes at 22° C. with a 1:1000 dilution of a peroxidase-conjugated goat anti-rabbit immunoglobulin G (for polyclonal antibody detection) or with goat anti-mouse immunoglobulin G (for monoclonal antibody detection; Bio-Rad Laboratories, Richmond, Calif.). […] Absorbance was assessed at 405 nanometers. Net gD-1 or LT-α binding was calculated by subtracting the amount of secondary antibody bound with HveA from the amount of ligand bound with HveA.

Question: Which “inhibitory effect upon binding of gD-1 with HveA” value (“inhibitory effect upon binding” below) [1] does the source give for “BP-1 (4, 10 Acm): linear BP-1 peptide generated by reduction and alkylation of the 26-mer peptide, SEQ ID NO:1 (SISC(Acm)SRGLVC(Acm)LLPRLTNESGNDRFDS)” here?
Answer: Its value is “no inhibitory effect”.

Question: For “BP-1: cyclic 26-residue HveA-binding peptide, SEQ ID NO:4, from the 27-mer phage library (SISCSRGLVCLLPRLTNESGNDRFDS; disulfide 4-10 (inferred))”, which “inhibition of binding of soluble wild type gD-1(306t) with immobilized HveA (200t)” value [1] is on record?
Answer: The value was 20%.

Question: And the “inhibition of binding of phage displaying BP-2 to HveA” value ([2]; FIG. 3A)?
Answer: The value was “vice versa”.

Question: And the “blocking of HSV-1 entry into CHO-HveA cells” value [3]?
Answer: Its value is “neither BP-1 nor any of the BP-2 analogs blocked virus entry”.

Question: And the “effect on HSV entry into CHO-HveC cells” value [4]?
Answer: Its value is “Neither BP-1 or BP-2 had any effect”.

Question: And the “effect on HSV entry into Vero cells” value [5]?
Answer: Its value is “Neither BP-1 or BP-2 had any effect”.

Question: Which “inhibitory effect upon binding” value [1] does the source give for “BP-2 (3, 9 Ala): linear form of BP-2 generated by substitution of the cysteine residues with alanine, SEQ ID NO:2 (GSADGFRVAYMH; Peptide corresponds to BP-2 (3,9 Ala))” here?
Answer: Its value is “no inhibitory effect”.

Question: Which results are given for “BP-2: cyclic 12-residue HveA-binding peptide, SEQ ID NO:5, from the 12-mer phage library (GSCDGFRVCYMH; disulfide 3-9 (inferred))”?
Answer: inhibition of binding of soluble wild type gD-1(306t) with immobilized HveA (200t) [1]: 80%; inhibition of binding of gD-1 (Δ290-299t) with HveA [6]: 40%; inhibition of binding of phage displaying BP-1 to HveA ([2]; FIG. 3B): inhibited; blocking of HSV-1 entry into CHO-HveA cells [3]: blocked entry; effect on HSV entry into CHO-HveC cells [4]: Neither BP-1 or BP-2 had any effect; effect on HSV entry into Vero cells [5]: Neither BP-1 or BP-2 had any effect

Question: How did the “inhibitory effect upon binding” value [1] turn out when “ICVVQDWGHHRCT [cyclic control peptide, reference compound]” was run?
Answer: The value was “no inhibitory effect”.

Question: How did the “inhibitory effect upon binding” value [1] turn out when “scrambled sequence BP-2: scrambled primary sequence of the parental cyclic BP-2, maintaining the position of the two cysteines, SEQ ID NO:6 (YMCRFVDGCHGS; disulfide 3-9 (inferred))” was run?
Answer: Its value is “no inhibitory effect”.

B1: gD-1 (306t): soluble wild type HSV glycoprotein D, from recombinant baculovirus-infected cells (protein)
chain: KYALVDASLKMADPNRFRGKDLPVLDQLTDPPGVRRVYHIQAGLPDPFQPPSLPITVYYAVLERACRSVLLNAPSEAPQIVRGASEDVRKQPYNLTIAWFRMGGNCAIPITVMEYTECSYNKSLGACPIRTQPRWNYYDSFSAVSEDNLGFLMHAPAFETAGTYLRLVKINDWTEITQFILEHRAKGSCKYALPLRIPPSACLSPQAYQQGVTVDSIGMLPRFIPENQRTVAVYSLKIAGWHGPKAPYTSTLLPPELSETPNATQPELAPEDPEDSALLEDPVGTVAPQIPPNWHIPSIQDAATPY
modifications: left off: small tags and cut ends
notes: soluble wild type HSV glycoprotein D, from recombinant baculovirus-infected cells
Question: Which results are given for B1?
Answer: inhibition of HveA-binding phage clones binding with HveA (200t) ([2]; fluid-phase soluble competitor, FIG. 1A): significantly inhibited; blocking of HSV-1 entry into CHO-HveA cells [3]: failed to do so
